From the supplement of paper PMC10567573

B1: SEPHS2 (parent)
chain: KASGRFGLLQGTSAETSGGLLICL
B2: NR2F2 (parent)
chain: VAHVESLQEKSQCALEEYVRSQYP

Variants of: B1
Assay: protein stability index of a GFP-peptide fusion (GPS, HEK-293T) (PSI 1-6); higher = more stable
Settings: c terminus: a fixed tail appended
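Further: lentivirally expressed fusions sorted by FACS into six bins by GFP to DsRed ratio, PSI derived from sequencing read proportions per bin multiplied by bin number.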

In order of falling protein stability index:
1. C23H  4.17
2. I22F  4.06
3. L24F  4.05
4. C23F  3.71
5. I22P  3.43
6. L24E  3.13
7. L24D  2.99
8. L21N  2.94
9. I22S  2.83
10. L24P  2.8
11. L21S  2.68
12. L24K  2.67
13. I22E  2.64
14. L24Y  2.62
15. L24R  2.55
16. I22G  2.47
17. L21P  2.44
18. L24T  2.43
19. I22H  2.42
20. L21T  2.38
21. L21M  2.35
22. I22T  2.33
23. L21H  2.21
24. I22K  2.14
25. L24N  2.11
26. L21Q  2.08
27. L21V  2.08
28. C23D  2.02
29. C23P  2.02
30. I22C  2.02
31. C23A  1.93
32. L24S  1.9
33. L24H  1.89
34. I22A  1.82
35. C23S  1.81
36. C23N  1.79
37. C23Q  1.73
38. I22D  1.72
39. I22Y  1.71
40. I22W  1.58
41. L21R  1.57
42. C23K  1.53
43. L21G  1.53
44. C23M  1.49
45. L21K  1.45
46. L21E  1.38
47. C23T  1.32
48. L21Y  1.32
49. I22M  1.28
50. L24A  1.24

Variants of: B2
Assay: as above
Settings: c terminus: a fixed tail appended

In order of falling protein stability index:
1. L15E  5.03
2. H3E  4.95
3. C13E  4.91
4. L15T  4.91
5. L15G  4.89
6. L15D  4.88
7. L15P  4.88
8. A14D  4.79
9. L7E  4.77
10. L15A  4.75
11. L15Q  4.73
12. C13A  4.7
13. A14E  4.68
14. L7N  4.68
15. H3D  4.6
16. Q12E  4.6
17. C13Q  4.55
18. L15V  4.51
19. S11D  4.5
20. K10E  4.48
21. C13N  4.47
22. L7P  4.43
23. L15N  4.42
24. C13H  4.4
25. L15R  4.37
26. V4E  4.37
27. C13D  4.36
28. S11E  4.36
29. L15H  4.35
30. L15S  4.33
31. S6E  4.33
32. K10D  4.32
33. Q12D  4.32
34. L15K  4.3
35. L7S  4.29
36. L7D  4.29
37. C13T  4.28
38. A2E  4.27
39. C13S  4.24
40. V1E  4.24
41. C13R  4.23
42. A14N  4.22
43. V1T  4.19
44. V1D  4.15
45. V1P  4.13
46. L7T  4.13
47. V4N  4.12
48. S6K  4.12
49. A14P  4.11
50. V4S  4.11
51. V4A  4.11
52. H3P  4.09
53. K10R  4.09
54. A14H  4.08
55. L7Q  4.08
56. S11G  4.07
57. V4R  4.06
58. V4H  4.06
59. V4D  4.06
60. C13V  4.05
61. S11A  4.05
62. L7V  4.05
63. S11P  4.04
64. S6A  4.04
65. V4Q  4.03
66. V1N  4.01
67. L15C  4.01
68. C13G  4
69. C13K  3.99
70. Q8E  3.99
71. K10N  3.98
72. C13M  3.98
73. L7K  3.98
74. L7M  3.95
75. V4G  3.94
76. A14T  3.92
77. K10T  3.92
78. C13L  3.92
79. C13P  3.92
80. L7A  3.92
81. V1M  3.89
82. V1Q  3.89
83. L15I  3.89
84. L7R  3.89
85. A14K  3.88
86. Q8K  3.88
87. S11N  3.88
88. A2S  3.87
89. H3T  3.86
90. S6D  3.86
91. A2D  3.85
92. L15M  3.84
93. A14V  3.83
94. K10Q  3.83
95. C13Y  3.83
96. L7I  3.82
97. A14M  3.81
98. H3Q  3.81
99. K10G  3.81
100. V4C  3.81
101. L7C  3.81
102. V1G  3.79
103. V4K  3.79
104. A14S  3.78
105. H3N  3.77
106. Q12R  3.77
107. K10S  3.76
108. A2P  3.76
109. Q12K  3.76
110. A14I  3.75
111. H3G  3.75
112. Q8N  3.75
113. A2T  3.73
114. Q8D  3.71
115. L7H  3.71
116. K10H  3.7
117. Q12G  3.7
118. S6Q  3.69
119. H3S  3.68
120. Q8R  3.68
121. S6R  3.67
122. V1K  3.66
123. A14G  3.6
124. E9D  3.59
125. S11H  3.59
126. V4T  3.59
127. C13F  3.58
128. A14Q  3.57
129. Q8G  3.56
130. A2R  3.55
131. V1H  3.55
132. L7G  3.55
133. S6T  3.55
134. C13W  3.54
135. V4P  3.54
136. Q12N  3.54
137. A2G  3.53
138. V1S  3.53
139. Q8T  3.53
140. S11T  3.53
141. S6N  3.53
142. V1I  3.52
143. E5Q  3.52
144. V1L  3.5
145. K10V  3.49
146. Q8H  3.49
147. H3A  3.48
148. A2K  3.48
149. Q8S  3.48
150. L15F  3.48
151. S6C  3.48
152. H3R  3.45
153. K10A  3.45
154. C13I  3.45
155. Q8P  3.45
156. V4I  3.45
157. L7Y  3.45
158. A14R  3.43
159. H3K  3.43
160. H3C  3.42
161. A14C  3.41
162. S11K  3.41
163. V1R  3.39
164. V1Y  3.39
165. E5N  3.38
166. K10P  3.37
167. S11C  3.37
168. H3M  3.36
169. A2Q  3.33
170. Q12A  3.33
171. S6V  3.33
172. V1A  3.29
173. V4W  3.28
174. A2V  3.27
175. L7F  3.27
176. E5A  3.27
177. S6H  3.26
178. A2Y  3.25
179. V4M  3.24
180. S6G  3.24
181. E9H  3.23
182. S6L  3.22
183. S11L  3.2
184. A14Y  3.19
185. E5D  3.18
186. V1W  3.12
187. S11R  3.12
188. Q12P  3.12
189. E9T  3.11
190. E9K  3.11
191. A2N  3.1
192. V4L  3.08
193. K10L  3.07
194. S6I  3.07
195. S6M  3.07
196. E9N  3.05
197. E5P  3.04
198. A2M  3.03
199. V1F  3.03
200. Q8A  3.03
201. L7W  3.03
202. Q8V  3.02
203. E5H  3.02
204. Q8C  2.99
205. Q12M  2.99
206. A2H  2.98
207. Q8M  2.98
208. S6Y  2.98
209. K10M  2.97
210. S11Q  2.97
211. K10W  2.96
212. E5K  2.96
213. S6P  2.94
214. E5T  2.93
215. E5G  2.9
216. E9G  2.89
217. Q8L  2.89
218. A14L  2.88
219. Q12H  2.88
220. Q12T  2.88
221. Q12F  2.86
222. A2L  2.85
223. V4F  2.85
224. H3V  2.83
225. Q8I  2.83
226. Q12V  2.83
227. S11I  2.8
228. E9Y  2.77
229. H3Y  2.77
230. Q12S  2.77
231. S6W  2.77
232. A14F  2.76
233. E9S  2.73
234. Q8Y  2.73
235. E9V  2.72
236. S6F  2.71
237. E5M  2.69
238. E9P  2.68
239. Q12L  2.68
240. V1C  2.66
241. E9L  2.64
242. Q12W  2.64
243. H3F  2.63
244. K10Y  2.63
245. E5R  2.63
246. E9Q  2.62
247. S11W  2.61
248. A2F  2.59
249. V4Y  2.59
250. K10I  2.58
251. A2I  2.56
252. E9A  2.55
253. H3I  2.55
254. Q12Y  2.55
255. K10C  2.54
256. A2C  2.54
257. S11M  2.54
258. E9R  2.53
259. E5S  2.53
260. A14W  2.5
261. Q12I  2.49
262. Q8F  2.48
263. S11V  2.48
264. E5V  2.48
265. Q12C  2.45
266. E5I  2.41
267. H3L  2.38
268. E5L  2.37
269. S11Y  2.36
270. L15W  2.33
271. A2W  2.29
272. E9W  2.27
273. Q8W  2.27
274. H3W  2.26
275. E9M  2.2
276. E5W  2.14
277. E9F  2.13
278. E5Y  2.13
279. K10F  2.08
280. E5C  1.97
281. E5F  1.92
282. E9C  1.85
283. E9I  1.83
284. S11F  1.78
